In test [1] the target is T1, human GPRC5D (human, UniProt Q9NZD1 1-345).
T1 construct: whole, on cells; Human is stated only for CHO-HuGPRC5D; also called HuGPRC5D; GPRC5D on CHO-HuGPRC5D cells
Briefly: FACS on H929 cells.

Test [2] deals with T1, human GPRC5D. Briefly: FACS on CHO-HuGPRC5D cells.
For test [3], the target named is T2, human BCMA (human, UniProt Q02223 1-184).
T2 construct: whole, on cells; Human is stated only for CHO-HuBCMA; also called HuBCMA; B-cell maturation antigen
T2 sequence (looked up): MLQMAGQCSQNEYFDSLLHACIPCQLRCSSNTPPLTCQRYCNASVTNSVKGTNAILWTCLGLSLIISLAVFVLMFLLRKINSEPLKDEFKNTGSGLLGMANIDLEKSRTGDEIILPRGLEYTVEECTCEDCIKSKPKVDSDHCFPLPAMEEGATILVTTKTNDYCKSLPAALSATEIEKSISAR
Briefly: FACS binding to RPMI8226 cells, Fc format [upper panel RPMI8226].

In another test the target is T3, CD38 (UniProt P28907 1-300, limits assumed).
T3 construct: whole, on cells; also called CD38 on RPMI8226 cells; CD38 on H929 cells
T3 sequence (looked up): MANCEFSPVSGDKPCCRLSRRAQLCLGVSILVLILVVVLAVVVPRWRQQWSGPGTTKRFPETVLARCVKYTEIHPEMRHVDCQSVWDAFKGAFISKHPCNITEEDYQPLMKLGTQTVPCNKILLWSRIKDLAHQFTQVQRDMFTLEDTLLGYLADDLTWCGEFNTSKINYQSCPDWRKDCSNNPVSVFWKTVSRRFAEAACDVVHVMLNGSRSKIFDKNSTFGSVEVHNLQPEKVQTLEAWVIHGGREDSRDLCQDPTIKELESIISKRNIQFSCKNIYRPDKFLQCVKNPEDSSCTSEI
Briefly: FACS binding to RPMI8226 cells, VHH-His format. Background: In flow cytometry, cells or beads pass a laser one at a time.

Test [4] concerns the target T2, human BCMA. Briefly: FACS on RPMI8226 cells, Fc formatted.
For test [5], the target named is T4, human FcRH5 (human, UniProt Q96RD9 16-977).
T4 construct: whole, on cells; also called huFcRH5; RPMI8226-huFcRH5
T4 sequence (looked up): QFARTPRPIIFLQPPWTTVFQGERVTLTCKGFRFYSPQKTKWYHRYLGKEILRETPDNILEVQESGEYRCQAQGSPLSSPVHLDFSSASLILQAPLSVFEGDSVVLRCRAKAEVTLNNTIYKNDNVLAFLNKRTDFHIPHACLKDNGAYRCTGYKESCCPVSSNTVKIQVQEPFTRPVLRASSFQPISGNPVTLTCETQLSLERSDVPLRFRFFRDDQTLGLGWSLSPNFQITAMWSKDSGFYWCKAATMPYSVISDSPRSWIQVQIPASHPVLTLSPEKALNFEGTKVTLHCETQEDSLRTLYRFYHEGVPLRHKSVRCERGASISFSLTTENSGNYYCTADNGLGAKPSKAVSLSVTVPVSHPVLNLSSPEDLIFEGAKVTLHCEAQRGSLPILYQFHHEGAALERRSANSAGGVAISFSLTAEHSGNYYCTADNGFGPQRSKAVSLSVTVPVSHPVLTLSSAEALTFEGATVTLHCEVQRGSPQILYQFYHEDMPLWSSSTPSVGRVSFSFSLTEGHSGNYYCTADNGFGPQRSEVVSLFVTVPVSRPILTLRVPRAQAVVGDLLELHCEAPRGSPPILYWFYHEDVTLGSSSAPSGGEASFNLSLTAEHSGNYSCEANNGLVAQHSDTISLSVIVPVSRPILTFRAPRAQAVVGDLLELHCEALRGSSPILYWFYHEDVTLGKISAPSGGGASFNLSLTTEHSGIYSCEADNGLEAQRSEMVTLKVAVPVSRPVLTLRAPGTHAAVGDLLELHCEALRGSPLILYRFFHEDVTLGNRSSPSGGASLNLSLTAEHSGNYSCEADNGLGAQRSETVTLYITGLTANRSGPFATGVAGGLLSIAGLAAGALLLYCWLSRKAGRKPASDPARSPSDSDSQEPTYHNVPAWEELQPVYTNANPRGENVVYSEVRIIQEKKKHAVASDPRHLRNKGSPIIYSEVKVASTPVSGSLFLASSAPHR
Briefly: FACS on RPMI8226-huFcRH5 cells, VHH-His.

The target of test [6] is cynomolgus FcRH5 (cynomolgus). Briefly: FACS on RPMI8226-cyFcRH5 cells, VHH-His.
The target in test [7] is T4, human FcRH5. Briefly: FACS binding to RPMI-huFCRH5 (HuFcRH5-RPMI8226) cells, VHH-His format.

Consider 9 molecules from patent US20260274983A1 (MODERNATX, published 2026).

T1 sequence (Q9NZD1 whole entry): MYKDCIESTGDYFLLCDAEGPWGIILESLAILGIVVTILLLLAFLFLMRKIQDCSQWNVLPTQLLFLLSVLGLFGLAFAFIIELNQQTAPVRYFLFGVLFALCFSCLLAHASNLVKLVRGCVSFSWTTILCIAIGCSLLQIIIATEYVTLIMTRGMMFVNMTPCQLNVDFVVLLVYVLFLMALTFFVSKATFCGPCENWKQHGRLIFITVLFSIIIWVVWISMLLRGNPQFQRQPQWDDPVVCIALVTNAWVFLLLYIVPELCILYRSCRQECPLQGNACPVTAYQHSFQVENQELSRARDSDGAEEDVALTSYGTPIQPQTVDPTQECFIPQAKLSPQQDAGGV

B1: GPRC5D-VHH2-H5 (VHH)
VHH: QVQLVESGGGLVQPGGSLRLSCAASGRTASAYVMGWFRQAPGKEREFVAGISGGAYYADSVKGRFTISRDNSKNTVYLQMNSLRAEDTAVYYCAAERGMRRLTESYQYDYWGQGTLVTVSS
notes: Humanized variant of GPRC5D-VHH2
The EC50 is the concentration needed to bring the measured effect to its halfway point. A higher EC50 goes with a need for much substance. With B1, the concentration giving a half-maximal response (EC50) was found to be 0.06 nM with human GPRC5D [1] and 0.3 nM with human GPRC5D [2].

B2: GPRC5D-VHH3-H9 (VHH)
VHH: QVQLVESGGGLVQPGGSLRLSCAASGIIFSASNLAWYRQAPGKQRELVAGVTGGGSINYADSVKGRFTISRDNAKNTIYLQMNSLRAEDTAVYYCNARRSYSHWGQGTLVTVSS
notes: Humanized variant of GPRC5D-VHH3
Take B2: the results for the EC50 with human GPRC5D [1] and with human GPRC5D [2] were 1.17 nM and 19.8 nM, respectively.

B3: BCMA-VHH21 (Fc fusion)
chain: QVKLEESGGGLVQAGGSLSLSCKASVRYFSTYAMGWFRQAPGKEREFVAAISWSGGSTYYADSVKGRFTISRDNAKNTVYLEMNSLKPEDTAVYYCAAPYGSSQNLEYDYWGQGTQVTVSS
notes: not shown: Fc of the Fc formatted construct
Consider B3, for which the binding result with human BCMA [3] was “no binding (tested: about 500 nM (log 2.7))”.

B4: BCMA-VHH24 (Fc fusion)
chain: QVKLEESGGGLVQAGGSLRLSCQVSGRTFASFAMAWFRQAPGKEREFVAGISWSGGFTSYADSVKGRFTISRDNAKHTVYLQMNSLKTEDTAMYYCGEWGGFSLLGQGTQVTVSS
notes: as for B3
B4: the binding result with human BCMA [3] is given as “no binding (tested: about 500 nM (log 2.7))”.

B5: CD38-VHH4 (VHH)
VHH: QVQLVESGGGLVQPGGSLRLSCAASGFSLDYYHIGWFRQAPGKEREGISCISSSDGYTLYADSVKGRFTISRDNAKNTVYLQMNSLKPEDTAVYYCAASPRRLACAGSLYPPLSADFSSWGQGTQVTVSS
Regarding B5, the binding result with CD38 is reported as “binds”.

B6: BCMA-VHH22 (Fc fusion)
chain: HVQLVDSGGGLVQAGGSLRLSCAASGFTFDDYAMSWVRQAPGKGLEWVSAISWNGGSTYYAESMKGRFTISRDNTKNTLYLQMNSLKPEDSAVYYCVPVSHSDSVCGSPYMDYWGKGTLVTVSS
notes: as for B3
Molecule B6 displayed a 50% effective concentration (EC50) with human BCMA [4] of 49.2 nM.

B7: FcRH5-VHH1 (VHH)
VHH: QVQFVESGGGLVQAGGSLRLSCAASGITVSRNDMGWYRQAPGKQRELVAIMNRVGSTDTADSVKDRFTISRDNTKNTLYLQMNNLKPEDTAVYYCNALNTVITWPWGQGTQVTVSSHHHHHH
Turning to B7, the concentration for a half-maximal effect (EC50) in the test with human FcRH5 [5] amounted to 7.2 nM.

B8: BCMA-VHH5 (Fc fusion)
chain: QVKLEESGGGLVQAGGSLRLSCAASGRTFSDYTVAWFRQAPGSEREFVAASVWTDGKPYYVDSVRGRFTISRDNAKNTVWLQMDSLQPDDTAVYYCQALTGGSWILDYWGQGTPVTVSS
notes: as for B3
Take B8: in the test with human BCMA [4], the concentration giving a half-maximal response (EC50) was found to be 72.2 nM.

B9: FcRH5-VHH3 (VHH)
VHH: QVQLVESGGGSVQAGGSLRLSCVDSGHTLSTYAMGWFRQAPGKEREFVAAIARDGGATYLSGSAQGRATISRDNAKSTVYLQMNNLKPDDTAVYYCAASSMFSTAKRDYSYWGQGTQVTVSSHHHHHH
As to B9, in test [6], the EC50 is 97.2 nM. In addition, the binding result in the test with human FcRH5 [7] is “no binding (tested: 1000 nM)”.
